Data published in paper doi:10.1101/2023.10.06.561273, “Bacterial cell surface nanoenvironment requires a specialized chaperone to activate a peptidoglycan biosynthetic enzyme” (bioRxiv, 2023).

Molecular target: the molecule itself
Assay: SEC; renatured SpoVK-His6 on Superdex 200 Increase in renaturation buffer (500 mM L-arginine, 100 mM NaCl, pH 7.5), 0.75 ml/min; final peak

B1: SpoVK-His6 (enzyme, B. subtilis, UniProt P27643 1-322, looked up)
chain: MLERAVTYKNNGQINIILNGQKQVLTNAEAEAEYQAALQKNEAKHGILKEIEKEMSALVGMEEMKRNIKEIYAWIFVNQKRAEQGLKVGKQALHMMFKGNPGTGKTTVARLIGKLFFEMNVLSKGHLIEAERADLVGEYIGHTAQKTRDLIKKSLGGILFIDEAYSLARGGEKDFGKEAIDTLVKHMEDKQHEFILILAGYSREMDHFLSLNPGLQSRFPISIDFPDYSVTQLMEIAKRMIDEREYQLSQEAEWKLKDYLMTVKSTTSPIKFSNGRFVRNVIEKSIRAQAMRLLMGDQYLKSDLMTIKSQDLSIKEEASGSA
notes: SpoVK, AAA+ ATPase of Bacillus subtilis; also called purified SpoVK
  stoichiometry N: ~3
